Assay results taken from paper PMC2853022.

Target: NS3h (helicase domain of HCV NS3) (Hepatitis C virus, Con 1b replicon …, UniProt Q9WMX2 1192-1657)
Assay: stopped-flow fluorescence

Sequence of NS3h (helicase domain of HCV NS3) (Q9WMX2 1192-1657): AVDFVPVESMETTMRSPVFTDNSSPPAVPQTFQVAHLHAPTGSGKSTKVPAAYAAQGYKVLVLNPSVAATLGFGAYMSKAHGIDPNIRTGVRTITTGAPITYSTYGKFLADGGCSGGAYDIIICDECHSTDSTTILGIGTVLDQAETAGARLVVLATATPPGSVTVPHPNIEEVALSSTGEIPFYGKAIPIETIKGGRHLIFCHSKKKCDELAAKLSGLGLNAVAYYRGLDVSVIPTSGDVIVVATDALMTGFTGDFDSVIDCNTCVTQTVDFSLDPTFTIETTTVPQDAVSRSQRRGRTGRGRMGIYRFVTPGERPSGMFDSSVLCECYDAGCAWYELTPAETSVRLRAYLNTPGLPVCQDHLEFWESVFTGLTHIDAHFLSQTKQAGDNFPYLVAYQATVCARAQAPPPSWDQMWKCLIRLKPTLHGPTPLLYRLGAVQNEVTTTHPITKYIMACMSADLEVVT

B1: 37:22-mer partial duplex (dsDNA)
DNA 1: GACTGACGCTAGGCTGACAGGATTTTTTTTTTTTTTT
DNA 2: TCCTGTCAGCCTAGCGTCAGTC
B1: binds.
